Target: IL-1RI (cell surface IL-1 receptor) (Homo sapiens (Human)) (UniProt P14778)

epitope-tagged IL-1RAcP (amino-terminal FLAG fusion, full length, transiently expressed from pFlag-CMV-1) (receptor)
NF-κB-dependent luciferase reporter gene in 293 cells, ligand-independent: 20 fold

Source: patent US6280955
